The target of this test is de-glycosylated KEN SVMP PIII (PNGase F treated under native conditions) (Bitis arietans (puff adder, Kenya)). As to the kind of experiment: gelatin zymogram.

Broadly, the stoichiometry N is the number of molecules, sites or subunits per partner or assembly. For the substance “de-glycosylated KEN SVMP PIII (PNGase F treated under native conditions) (enzyme)”, the stoichiometry N was 2.
